B1: OAS1 (parent)
chain: LTVYAWERGSMKTHFNTAQGFRTV
B2: RSPH3 (parent)
chain: LELQRQREARKRALARKQAQEQLR

Variants of: B1
Assay: protein stability index of a GFP-peptide fusion (GPS, HEK-293T) (PSI 1-6); higher = more stable
Settings: c terminus: a fixed tail appended
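Note: lentivirally expressed fusions sorted by FACS into six bins by GFP to DsRed ratio, PSI derived from sequencing read proportions per bin multiplied by bin number.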

Protein stability index: each site, then its substitutions
H14: I 2.29; E 2.42; Q 1.75; K 2.35; L 2.88; D 2.33; G 1.69; Y 2.75; M 3.15
F21: G 1.4; L 2.67; D 2.09; R 1.82; W 2.21; I 2.09; E 2.1; H 1.74; Y 2.9; C 2.35; A 1.9
K12: S 4.72; P 5.14; V 2.45; R 1.51; L 2.72; D 2.29; N 2.66; I 2.98; W 2.8
M11: S 2.19; Y 3.28; V 2.09; L 1.51; A 1.75; I 1.97
T13: W 3.26; P 2.06; R 1.64; I 2.75
W6: L 2.63; P 1.69; C 1.61; R 1.44; N 2.06; H 2.2; Q 1.66
A5: T 2.75; N 2.29; Y 3.25; R 2.9; E 2.46; K 1.63; H 1.69; M 2.06
R22: P 3.8; F 1.87; L 3.28; D 2.38; G 1.45; T 2.44; N 2.38; Y 3.17; A 3.1; V 2.33; K 1.71
V3: P 1.77; E 2.09; I 3.14; F 3.04; S 2.12; W 2.92; G 1.91; M 2.16
Q19: N 2.92; T 2.88; M 3.27; W 1.62; E 2.52
Y4: W 1.19; K 2.16; M 1.51; A 2.01; P 2.31; D 2.09
A18: K 2.67; E 1.54; Q 2.79; H 3.09; R 2.84; F 2.56; I 4.47
T2: M 1.69; E 1.91; A 2.03; D 1.8; P 1.93; G 1.25; H 2.11
R8: S 2.55; I 2.15; L 3.07; D 2.89; N 2.65; F 2.26; E 2.4; G 2.33
G9: T 2.55; M 2.85; I 1.86; N 2.48; P 3.81; F 3.19; Q 1.87
S10: N 2.53; C 2.82; R 2.08; V 2.62; Q 1.99; L 2; P 1.54; Y 3.69; M 2.46; E 3.28
G20: S 3.02; A 2.49; Y 3.45; T 2.89; Q 2.14
L1: T 2.09; R 2.28; V 1.5; H 2.13; G 2.31; I 1.71; N 2; M 2.57; P 2.14
F15: P 1.52; V 2.08; H 2.39; Y 2.28; Q 1.53; G 1.61; W 2.62
V24: Y 2.51; D 1.63; N 2.84
N16: R 1.53; L 2.23; H 2.69
T17: S 3.12; H 2.95; L 2.17; Q 4.87; D 2.33
T23: H 3.17; L 2.25; S 2.78; G 2.76; Y 1.32; R 1.4; A 1.8; P 2.61
E7: W 1.98; K 2.28; S 2.76; A 3.15; F 2.85; D 2.14; P 2.46; V 3.45; M 3.48; I 2.63

Variants of: B2
Assay: as above
Settings: c terminus: a fixed tail appended

Protein stability index: each site, then its substitutions
E21: K 4.28; A 2.72; L 3.48; I 3.33; G 3.09; F 2.93; H 3.23; N 3.87; W 3.48; Y 3; T 3.81; Q 3.23; S 3.73; M 3.75; V 3.31; P 3.45; D 3.62; R 3.99; C 3.01
K17: R 4.38; S 4.21; Q 4.15; N 4.45; F 3.95; L 3.97; D 3.92; T 4.43; A 4.1; M 4.14; Y 3.71; C 3.77; P 4.48; E 4.69; V 4.31; W 3.44; I 3.77; H 4.17; G 4.66
Q18: G 3.4; K 3.39; L 3.13; I 2.33; W 2.5; E 3.86; R 3.64; Y 2.81; T 4.05; V 2.56; C 2.81; A 3.12; H 3.11; P 4.32; M 3.46; F 3.53; S 3.38; N 3.68
Q22: T 3.16; Y 3.01; D 4.29; G 4.22; A 4.19; V 3.37; M 2.92; H 2.95; F 3.04; W 2.8; R 3.93; K 3.77; E 3.8; N 4.14; S 3.5; P 3.79; C 3.11; L 3.63; I 2.65
R16: W 3.74; P 4.32; Y 3.4; M 3.39; L 4.25; K 3.93; N 4.6; S 3.27; T 4.02; Q 3.96; V 3.17
A19: W 3.15; C 4.22; V 3.27; Y 2.92; K 4.08; T 4; N 4.08; D 4.37; Q 4.54; L 3.09; G 3.53; E 3.28; P 3.72; S 4.17; H 4.33; I 3.55; F 3.08; M 3.37
Q20: Y 2.45; V 3.78; W 2.04; N 3.11; K 4.38; M 2.88; S 3.77; T 3.79; P 4.32; D 4.74; L 2.8; H 3.77; I 3.47; A 3.61; E 4.48; R 3.79; C 3.35; G 3.52; F 2.02
R24: W 2.98; L 3.18; N 4.23; Q 4.54; P 3.86; H 3.85; S 3.8; K 3.72; D 4.2; C 4.13; I 3.46; M 3.33; T 3.82; E 4.56; A 3.97; G 4.13; V 4.43; F 3.77; Y 3.16
L23: I 3.56; Q 4.35; D 4.42; M 4.31; H 4.25; F 3.96; G 4.78; Y 3.9; A 4.96; E 4.59; R 4.16; W 3.69; P 3.78; T 4.08; N 3.92; K 3.83; S 3.78; V 2.77; C 4.26
